Values joined by “and” are separate entries in the source; they are usually repeats but may differ in a detail not shown here. Equal entries are not always repeated.

The target of the test is T1, human MSR1 (human, UniProt P21757 1-451).
T1 sequence (looked up): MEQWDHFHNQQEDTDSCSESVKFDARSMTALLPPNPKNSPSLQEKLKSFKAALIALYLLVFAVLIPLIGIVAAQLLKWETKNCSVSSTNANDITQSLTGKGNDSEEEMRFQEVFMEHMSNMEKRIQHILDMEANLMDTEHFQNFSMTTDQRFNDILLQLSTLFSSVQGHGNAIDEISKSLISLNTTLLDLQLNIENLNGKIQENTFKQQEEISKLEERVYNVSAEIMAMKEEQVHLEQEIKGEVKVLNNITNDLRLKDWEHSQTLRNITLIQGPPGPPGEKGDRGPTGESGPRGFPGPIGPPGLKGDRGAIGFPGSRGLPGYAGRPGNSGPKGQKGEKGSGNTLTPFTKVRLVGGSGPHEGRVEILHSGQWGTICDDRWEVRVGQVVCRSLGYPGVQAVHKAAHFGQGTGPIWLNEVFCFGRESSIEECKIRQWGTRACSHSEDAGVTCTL
Kind of test: cell-based or functional assay.

For the molecule isotype control ADCs (antibody), the EC50, GR luciferase reporter activity in HEK293/GRLuc/MSR1 cells was over 35 nM and the signal to noise (S/N), GR luciferase reporter in HEK293/GRLuc/MSR1 cells is 1.9 to 154. In the case of isotype control ncADCs (antibody), the EC50, GR luciferase reporter activity in HEK293/GRLuc/MSR1 cells was over 50 nM and the signal to noise (S/N), GR luciferase reporter in HEK293/GRLuc/MSR1 cells lay in the range of 3.8 to 148.

B1: anti-MSR1 (H1H21234N-N297Q) ADCs (antibody, V domains shown)
VH: QVQLQESGPGLVKPSETLSLTCTVTGGSISRNYWSWIRQPPGKGLEWIGYIYYSGSIDYNPSLKSRVTISVDTSKNQFSLKLSSMTAADTAVYYCARDRWNWKYGMDVWGQGTTVIVSS
VL: EIVLTQSPGTLSLSPGERATLSCRASQTVRNNYLAWYHQKPGQAPRLLIYGASSRATGIPDRFSGSGSGTDFTLTISRLEPEDFTVYYCHQYGNSPWTFGQGTKMEIKR
modifications: linker-payload on glutamines Q295 and Q297 (N297Q, EU numbering) of the heavy chain constant region; four DAR
On to B1, for which the “EC50, GR luciferase reporter activity in HEK293/GRLuc/MSR1 cells” value was 0.636 nM and 3.96 nM.

The values above are taken from patent WO2020146541A2 (dated 2020).
